The target in experiment [1] is T1, Chimeric chicken Her3-human domain 1 (AA1-206 human, AA207-642 chicken) (chicken/human chimera).
T1 construct: Transmembrane and extracellular regions, on HEK293 cells
T1 chain: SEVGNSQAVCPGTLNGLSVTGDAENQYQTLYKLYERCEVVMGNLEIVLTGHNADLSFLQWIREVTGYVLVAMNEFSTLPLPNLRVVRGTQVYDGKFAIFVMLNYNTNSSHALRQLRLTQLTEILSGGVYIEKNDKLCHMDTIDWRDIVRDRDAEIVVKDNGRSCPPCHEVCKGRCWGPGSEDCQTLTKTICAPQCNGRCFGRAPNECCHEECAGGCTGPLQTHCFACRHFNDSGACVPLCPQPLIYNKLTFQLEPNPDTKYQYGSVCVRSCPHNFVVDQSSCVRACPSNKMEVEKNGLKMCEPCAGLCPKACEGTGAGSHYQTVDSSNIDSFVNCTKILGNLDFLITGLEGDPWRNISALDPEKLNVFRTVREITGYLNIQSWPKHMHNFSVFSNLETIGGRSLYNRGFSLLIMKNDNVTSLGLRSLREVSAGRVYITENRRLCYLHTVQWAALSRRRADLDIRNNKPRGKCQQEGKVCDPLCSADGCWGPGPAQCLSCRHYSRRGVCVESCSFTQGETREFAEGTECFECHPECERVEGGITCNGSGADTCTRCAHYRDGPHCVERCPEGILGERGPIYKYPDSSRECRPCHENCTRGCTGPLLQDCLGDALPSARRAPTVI
The experiment can be described thus: FACS, HEK293 with chimeric HER3. (In flow cytometry, cells or beads pass a laser one at a time.)

Experiment [2] has as its target T2, Chimeric chicken Her3-human domain 2 (AA207-328 human) (chicken/human chimera).
T2 construct: Transmembrane and extracellular regions, on HEK293 cells
T2 chain: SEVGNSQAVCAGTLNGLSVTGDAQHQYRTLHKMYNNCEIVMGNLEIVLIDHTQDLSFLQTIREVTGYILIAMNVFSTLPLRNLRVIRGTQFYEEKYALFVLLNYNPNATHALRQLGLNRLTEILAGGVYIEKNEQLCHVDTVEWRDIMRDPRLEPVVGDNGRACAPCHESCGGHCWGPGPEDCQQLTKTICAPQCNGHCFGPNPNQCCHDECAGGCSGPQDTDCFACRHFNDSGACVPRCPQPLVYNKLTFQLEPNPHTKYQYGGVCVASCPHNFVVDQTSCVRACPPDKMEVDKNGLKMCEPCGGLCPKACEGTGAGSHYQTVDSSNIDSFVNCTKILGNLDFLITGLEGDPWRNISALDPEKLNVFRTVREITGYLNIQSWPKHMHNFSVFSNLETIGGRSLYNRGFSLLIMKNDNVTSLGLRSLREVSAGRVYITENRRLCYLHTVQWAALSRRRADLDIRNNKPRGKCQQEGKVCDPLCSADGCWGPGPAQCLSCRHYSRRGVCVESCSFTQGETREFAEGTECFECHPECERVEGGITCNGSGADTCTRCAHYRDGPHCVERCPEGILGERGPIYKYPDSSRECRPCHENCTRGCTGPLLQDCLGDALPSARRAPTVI
In words: FACS, HEK293 with chimeric HER3.

The target of experiment [3] is T3, human HER3-Fc (R&D Systems, 348-RB) (human, UniProt P21860 20-643).
T3 construct: Bought; also called hHER3-Fc; Fc-HER3; Fc part of the bought chimera not given, not described
The experiment can be described thus: SPR, HER3-Fc captured; heterogenous curve, main interaction (89%). A general note: In SPR one partner is held on a chip, and binding of the other changes the refractive index at the surface.

Experiment [4] addresses T4, hHER3 ECD (human HER3 extracellular domain) (human, UniProt P21860 20-643).
T4 construct: also called recombinant HER3-ECD
The experiment can be described thus: SPR off rate.

Experiment [5] concerns the target T5, hHER3 full length (human, UniProt P21860 20-1342). The experiment can be described thus: cell-based or functional assay.
The target of experiment [6] is T3, human HER3-Fc (R&D Systems, 348-RB). In words: 18G11 competition alphascreen. A general note: Alpha assays give light when donor and acceptor beads are brought close together.
Experiment [7] has the same target. The experiment can be described thus: SPR, HER3-Fc captured by anti-Fc.
For experiment [8] the target is unchanged. The experiment can be described thus: alphascreen, competitor biotinylated 18G11.
Experiment [9] concerns the target T4, hHER3 ECD (human HER3 extracellular …). In words: off rate screening on recombinant HER3-ECD.
The target is the same in experiment [10]. In words: SPR off rate on HER3-ECD, periplasmic extract.
Experiment [11] has as its target T5, hHER3 full length. In words: cell-based or functional assay. The source holds these as a separate data set.
The target of experiment [12] is T3, human HER3-Fc (R&D Systems, 348-RB). In words: HRG competition alphascreen.
For experiment [13] the target is unchanged. In words: HRG competition alphascreen. This is another data set of the same source.
For experiment [14] the target is unchanged. The experiment can be described thus: HRG competition alphascreen. This is another data set of the same source.
Experiment [15] concerns the target T5, hHER3 full length. The experiment can be described thus: FACS competition with HRG1-β1-EGF, CHO-HER3.

Values joined by “and” are separate entries in the source; they are usually repeats but may differ in a detail not shown here. Equal entries are not always repeated.

As a reminder, the Kd is a measure of binding affinity in units of concentration. Lower therefore signals higher affinity. One may read the kon as a measure of how fast the partners come together. Lower therefore signals slow association. Broadly, the koff is the rate constant with which the complex falls apart. As usually defined, the IC50 is the midpoint of a concentration-inhibition curve. A higher IC50 goes with a need for much substance. One may read the % inhibition as the relative decrease from the control value, in per cent.

B1: 17C08 (VHH)
VHH: EVQLVESGGGLMQAGDSLRLSCAASGRAFSSYALGWFRRAPGKERECVAATDRLGDNTYFPDSVKGRFTISRDNAKNTLYLQMNNLKPEDTAVYYCAAGAVRYGVSTSPMNYNYWGQGTQVTVSS
notes: also called 17C8
Turning to B1, the binding result in experiment [1] was “binds”. For the same molecule, the binding result in experiment [2] is given as “binds”. In experiment [3], this molecule displayed a Kd of 48 nM and an on-rate constant (kon) of 8400 M⁻¹ s⁻¹.

B2: 18G11 (VHH)
VHH: EVQLVESGGGLVQPGGSLRLSCAASGTLFKINAMGWYRQAPGKRRELVALITSSDTTDYAESVEGRFTISRDNTWNAVYLQMNSLKPEDTAVYYCHSDHYSMGVPEKRVIMYGQGTQVTVSS
notes: c-myc, His6-tagged form as expressed; also called HER3MS18G11; HER3MS018G11
B2: the koff is 0.00043 s⁻¹ and 0.00047 s⁻¹ in experiment [4]; 0.00061 s⁻¹ in experiment [9]; 0.00062 s⁻¹ and 0.00077 s⁻¹ in [10]. For the same molecule, the “IC50 pHER3 blocking, HRG stimulated MCF7” value with hHER3 full length [5] came out at 2.91e-08 M. Moreover, the binding result in experiment [2] was “binds”. The IC50 in experiment [6] is 4.4 nM; in [8] it was 3.2 nM. The same molecule registered an equilibrium dissociation constant (Kd) in experiment [7] of 10 nM. For the same molecule, the on-rate constant (kon) in experiment [7] worked out at 26000 M⁻¹ s⁻¹.

B3: 04C07 (VHH)
VHH: EVQLVESGGGLVQAGGSLRLSCAASGFTFSSYPMSWVRQAPGKGPAWVSTVSPGGITTSYADSVKGRFTISRDNAKNTLYLQMNSLKPEDTAVYYCLRDLNNRGQGTQVTVSS
notes: also called HER3MS04C07; HER3MS004C07
As for B3, in the experiment with hHER3 full length [11], the “IC50 pHER3, HRG1-β1 stimulated MCF7” value was 6.25e-09 M. Also, the binding result in experiment [1] is on record as “binds”. Also, the “% inhibition” value in experiment [12] is 86.7%. Further, the IC50 was 0.264 nM in experiment [12]; 0.27 nM and 0.69 nM in [13]; 0.18 nM in experiment [14]; 4.26 nM with hHER3 full length [15]. This molecule also came in with a dissociation constant (Kd) in experiment [7] of 0.22 nM. This molecule registered an on-rate constant (kon) in [7] of 1.2e+06 M⁻¹ s⁻¹.

Values taken from patent publication US20130136748A1 (Ablynx, published 2013).
